In doi:10.1101/2025.01.30.635804, “Emergence of specific binding and catalysis from a designed generalist binding protein” (bioRxiv, 2025):

Assay: Kinetic parameters of reported proteins catalyzing the Kemp elimination (literature)
Type: biochemical
Details: literature kcat/KM (M-1s-1) divided by total number of amino acids
Text: Extended Data Table 4 çKinetic parameters of reported proteins catalyzing the Kemp elimination of 5-nitrobenzisoxazole with base-mediated mechanism.
Protein Description kcat/KM, kcat, KM, Amino Ref
AlleyCat Single mutation of 5.8 ND ND 0.08 64
Lysozyme Double mutation of 1.8 ND ND 0.01 138 […]

Row | Molecule | Amino acid efficiency
1 | tKSI: Natural enzyme; ref 68 (protein, UniProt P00947 1-125, looked up) Steroid Delta-isomerase: MNTPEHMTAVVQRYVAALNAGDLDGIVALFADDATVEDPVGSEPRSGTAAIREFYANSLKLPLAVELTQEVRAVANEAAFAFTVSFEYQGRKTVVAPIDHFRFNGAGKVVSMRALFGEKNIHAGA | 0.02
2 | D38N tKSI: Single mutation of tKSI; ref 68 (protein, UniProt P00947 1-125, looked up, variant D38N) Steroid Delta-isomerase: MNTPEHMTAVVQRYVAALNAGDLDGIVALFADDATVENPVGSEPRSGTAAIREFYANSLKLPLAVELTQEVRAVANEAAFAFTVSFEYQGRKTVVAPIDHFRFNGAGKVVSMRALFGEKNIHAGA | 140
